Source: patent publication US9809653B2, “Anti-LAMP1 antibodies and antibody drug conjugates, and uses thereof” (SANOFI, priority 2012, dated 2017)
Positions count from the first letter of the chain named.

Columns and labels:
Format in all cases: binding
[1] = biological target: T1, Alascan LAMP1 transmembrane proteins (hLAMP1_ΔGYQTI mutants) (Homo sapiens, UniProt P11279, R186A); experiment: Ala scan of LAMP1 transmembrane proteins, flow cytometry; details: pXL6081, R186A in hLAMP1_ΔGYQTI; loss = decrease of more than 50% of the mean fluorescence
T1 construct: expressed in transfected cells; host or cells: HEK293 (293-F), transient transfection
T1 sequence (P11279 with tags, fused parts or gaps R186A): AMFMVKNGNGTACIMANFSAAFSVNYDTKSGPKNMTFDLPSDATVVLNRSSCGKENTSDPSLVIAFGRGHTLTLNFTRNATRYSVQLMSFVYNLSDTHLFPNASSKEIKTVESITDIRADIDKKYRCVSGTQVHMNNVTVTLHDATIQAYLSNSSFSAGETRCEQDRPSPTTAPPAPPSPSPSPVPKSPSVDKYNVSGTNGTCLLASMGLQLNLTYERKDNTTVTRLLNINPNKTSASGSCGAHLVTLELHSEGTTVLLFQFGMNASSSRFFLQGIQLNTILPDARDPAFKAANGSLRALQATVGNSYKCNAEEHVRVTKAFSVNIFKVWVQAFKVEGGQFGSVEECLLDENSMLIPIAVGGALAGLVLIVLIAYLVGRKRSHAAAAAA
Description: (§1) Individual residues identified in example 6.5 and not involved in β-strand structure have been individually replaced by an alanine residue in the LAMP1 sequence derived from hLAMP1_ΔGYQTI and encoded in plasmid pXL5626 (example 6.4). A total of 21 plasmids were engineered from pXL5626 (see Table 19) and used to assay LAMP1 expression at the cell membrane of HEK293 cells after transient transfection. Two days post transfection cells were processed, analyzed by flow cytometry (Guava® easyCyte™ 8HT) as mentioned in example 4.7, and the mean fluorescence was recorded. This fluorescence represents a semi-quantitative assessment of binding. Loss of binding is reported on Table 19 when there is a decrease of more than 50% of the mean fluorescence compared to the control protein encoded from pXL5626.

[2] = biological target: T2, Alascan LAMP1 transmembrane proteins (hLAMP1_ΔGYQTI mutants) (Homo sapiens, UniProt P11279, I149A); experiment: as above; details: pXL6070, I149A in hLAMP1_ΔGYQTI; loss = decrease of more than 50% of the mean fluorescence
T2 construct: expressed in transfected cells; host or cells: HEK293 (293-F), transient transfection
T2 sequence (P11279 with tags, fused parts or gaps I149A): T1 sequence (P11279 with tags, fused parts or gaps R186A) with I121A, A158R
Description: as §1

[3] = tested on: cynomolgus monkey LAMP1 protein (SEQ ID NO: 29); experiment: ELISA on cynomolgus monkey LAMP1; details: FIG. 3
Method: Extracellular domain of LAMP1 of human (Ala29-Met382 of SEQ ID NO: 24) and cynomolgus monkey LAMP1 (Ala27-Met380 of SEQ ID NO: 39) were prepared as described in example 6.2. […] The antibody binding was visualized by adding TMB-H2O2 buffer and read at a wavelength of 450 nm.
Antibody MAb4 was assessed for its ability to bind primate LAMP1 protein by enzyme-linked immunosorbent assay (ELISA) assay as described in example 4.7 and EC50 values determined as described in example 6.2.

Chain of cynomolgus monkey LAMP1 protein (SEQ ID NO: 29) (as listed by the source): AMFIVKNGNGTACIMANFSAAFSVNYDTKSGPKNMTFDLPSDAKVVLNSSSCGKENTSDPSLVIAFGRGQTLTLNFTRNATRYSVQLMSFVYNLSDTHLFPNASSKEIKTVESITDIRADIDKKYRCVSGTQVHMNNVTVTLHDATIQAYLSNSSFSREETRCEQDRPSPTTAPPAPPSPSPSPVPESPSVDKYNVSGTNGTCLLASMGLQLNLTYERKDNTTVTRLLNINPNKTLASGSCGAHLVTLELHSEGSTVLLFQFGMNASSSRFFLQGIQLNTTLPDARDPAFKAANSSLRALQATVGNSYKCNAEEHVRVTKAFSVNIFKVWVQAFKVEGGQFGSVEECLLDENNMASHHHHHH

B1: MAb1: murine monoclonal anti-LAMP1 antibody, VH SEQ ID NO: 1, VL SEQ ID NO: 5 (antibody, V domains shown)
VH: QVQLQQSGAELVKPGASVKMSCKASGYIFTNYNIHWVKKSPGQGLEWIGAIYPGNGDAPYSQKFKDKATLTADKSSSTTYMQLSRLTSEDSAVYYCVRANWDVAFAYWGQGTLVSVSA
VL: DIQMTQSPPSLSASLGGKVTITCKASQDIDRYMAWYQDKPGKGPRLLIHDTSTLQPGIPSRFSGSGSGRDYSFSISNLEPEDIATYYCLQYDNLWTFGGGTKLEIK
modifications: Antibody Fragment; antibody fragment
Binding to mAb, Alascan [1]: Binding loss
Binding to mAb, Alascan [2]: Binding loss
Binding affinity, cynomolgus monkey LAMP1 versus human LAMP1 [3]: in the same range
